Laboratory results published in patent US20250388664A1 (BIOARCTIC, published 2025).

What was measured:
[1] = target: T1, hTfR1 (recombinant, construct not specified) (human, UniProt P02786 89-760, limits assumed); test: BLI: IgG captured from hybridoma supernatant on anti-mouse capture sensors, 250 nM hTfR1 in solution, 120 s association, 90 s dissociation
T1 construct: also called biotinylated hTfR1
Description: Next, sensors with immobilized IgGs were briefly washed for 10 s before incubation in running buffer to establish a baseline signal. […] All proteins were diluted in running buffer. Target dissociation was measured by incubating the biosensors in running buffer for 90 s.

[2] = target: T2, His10-hTfR1 (SEQ ID NO:109) (human, UniProt P02786 90-760); test: ELISA, hybridoma supernatant
T2 construct: Recombinant, HEK293; also called His-tagged hTfR1; His-tagged hTfR

[3] = target: T3, h/m apical domain chimera (SEQ ID NO:112) (human/mouse chimera); test: indirect ELISA: plate coated with 1 µg/ml h/m apical domain chimera, mouse IgG titrated, anti-mouse IgG-HRP; x axis printed as 'TfR (ng/ml)'
T3 construct: also called chimeric TfR1 consisting of human apical domain grafted on mouse TfR1 ectodomain
T3 chain: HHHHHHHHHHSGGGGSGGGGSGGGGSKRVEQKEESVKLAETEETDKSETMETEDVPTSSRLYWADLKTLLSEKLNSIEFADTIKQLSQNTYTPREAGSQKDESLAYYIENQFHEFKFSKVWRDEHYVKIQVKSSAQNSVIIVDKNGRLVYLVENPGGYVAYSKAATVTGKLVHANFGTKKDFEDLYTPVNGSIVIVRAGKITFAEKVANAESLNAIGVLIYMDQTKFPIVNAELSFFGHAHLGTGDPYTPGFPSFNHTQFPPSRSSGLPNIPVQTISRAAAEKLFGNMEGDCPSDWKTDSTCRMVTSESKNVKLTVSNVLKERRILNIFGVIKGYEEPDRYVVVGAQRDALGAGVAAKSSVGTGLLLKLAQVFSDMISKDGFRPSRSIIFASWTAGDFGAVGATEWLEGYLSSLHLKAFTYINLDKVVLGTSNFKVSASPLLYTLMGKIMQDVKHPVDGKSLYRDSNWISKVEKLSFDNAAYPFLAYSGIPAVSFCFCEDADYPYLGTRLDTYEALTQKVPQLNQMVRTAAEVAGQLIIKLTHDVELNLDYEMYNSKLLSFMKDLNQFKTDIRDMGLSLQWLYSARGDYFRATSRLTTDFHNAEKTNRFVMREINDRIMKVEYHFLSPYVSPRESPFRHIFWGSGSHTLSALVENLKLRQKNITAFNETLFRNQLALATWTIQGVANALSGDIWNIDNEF
Description: Plasma samples serially diluted from a starting dilution of 1/450 or hybridoma supernatants diluted 1/2 were added to the plates (50 μl/well; dilution buffer: PBS with 0.1% BSA and 0.05% TWEEN®-20) and incubated for 2 h at room temperature and then the plates were washed four times. […] After another wash (as above), 50 μl/well TMB substrate (K-Blue® Aqueous, Neogen) was added, and the reaction was stopped after 10-15 min with 50 μl/well of 0.5 M H₂SO₄. The optical density at 450 nm was read using a plate reader (Tecan). The endpoint titers were defined as the dilution above the average of the blank wells (background) plus 3 standard deviations of the blank wells.
(§1) In the ELISA experiment, human, mouse or three different chimeric TfR1 receptors were used to coat ELISA plates (FIGS. 30A-30E). The ELISA protocol was slightly modified as follows from the indirect ELISA described in Example 15. […] The coated plates were then blocked. Dilution series of mouse IgG of the analyzed antibodies were prepared in PBS and incubated on the ELISA plates. Unbound antibodies were then washed off before incubating wells with a HRP-conjugated secondary, anti-mouse-IgG for 1 h. Plates were then washed again before addition of HRP substrate TMB for development and detection of antibody binding to the wells. TMB development was stopped by adding 0.5 M H₂SO₄ to the wells and ELISA responses measured as the OD at 450 nm in an ELISA plate reader.

[4] = target: T4, ectodomain of human TfR1 (His10-hTfR1; SEQ ID NO:110) (human, UniProt P02786 89-760); test: indirect ELISA: plate coated with 1 µg/ml hTfR1 ectodomain, mouse IgG titrated, anti-mouse IgG-HRP; x axis printed as 'TfR (ng/ml)'
T4 construct: also called ectodomain of hTfR1
Description: as §1

[5] = target: T5, h/m helical domain chimera (SEQ ID NO:113) (human/mouse chimera, UniProt Q62351 90-763 (mouse entry)); test: indirect ELISA: plate coated with 1 µg/ml h/m helical domain chimera, mouse IgG titrated, anti-mouse IgG-HRP; x axis printed as 'TfR (ng/ml)'
T5 construct: also called chimeric TfR1 consisting of human helical domain grafted on mouse TfR1 ectodomain
T5 chain: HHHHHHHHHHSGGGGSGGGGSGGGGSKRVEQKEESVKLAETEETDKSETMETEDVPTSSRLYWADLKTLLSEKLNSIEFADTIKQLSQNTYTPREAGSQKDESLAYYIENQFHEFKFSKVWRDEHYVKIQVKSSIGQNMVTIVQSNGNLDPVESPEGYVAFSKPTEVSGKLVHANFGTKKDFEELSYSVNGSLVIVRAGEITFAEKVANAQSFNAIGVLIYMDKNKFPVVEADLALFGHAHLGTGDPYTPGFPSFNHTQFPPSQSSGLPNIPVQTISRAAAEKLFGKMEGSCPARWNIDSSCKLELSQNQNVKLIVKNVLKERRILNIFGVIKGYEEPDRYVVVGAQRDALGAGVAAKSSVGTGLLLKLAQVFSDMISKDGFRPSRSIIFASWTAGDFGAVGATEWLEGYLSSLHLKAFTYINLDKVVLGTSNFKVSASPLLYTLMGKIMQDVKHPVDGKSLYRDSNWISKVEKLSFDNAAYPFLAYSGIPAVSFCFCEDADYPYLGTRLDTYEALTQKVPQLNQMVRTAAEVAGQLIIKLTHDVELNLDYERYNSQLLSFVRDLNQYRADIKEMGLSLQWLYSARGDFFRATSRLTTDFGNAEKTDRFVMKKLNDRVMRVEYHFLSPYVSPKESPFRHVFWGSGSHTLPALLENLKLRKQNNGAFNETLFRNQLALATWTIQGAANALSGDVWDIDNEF
Description: as §1

[6] = target: T6, AβpE3-42 protofibrils (UniProt P05067 674-713, pyroglutamate at position 3 (N-terminal residue)); test: SPR, protofibrils immobilised, antibody injected, 1:1 fit, apparent; binding to AβpE3-42 protofibrils (not monomer); KD in pM
T6 construct: range 3-42 (Aβ numbering); Soluble aggregates made from AβpE3-42 peptide, purified in the void peak of SEC; also called AβpE3-42 PF
Description: (§2) Single cycle kinetics was also used to measure binding of the antibodies to AβpE3-42 protofibrils. […] For binding to AβpE3-42 protofibrils, the antibodies were injected over the chip using a 3-fold dilution series in five steps starting at 700 nM, using 2 min injection of every antibody concentration and a 60 min dissociation time. Regeneration of the surface between cycles was done by injecting 30 μl 10 mM glycine-HCl pH 1.7. The binding data was fitted to a 1:1 interaction model.
(§3) In all SPR experiments, 1×HBS-EP+ (Cytiva, cat. no. BR100669) was used as running buffer and to dilute antibodies and target antigens. Experiments were performed at 25° C.

[7] = target: T7, Aβ3-28 monomer (UniProt P05067 674-699); test: SPR, antibody immobilised
T7 construct: range 3-28 (Aβ numbering)
Description: (§4) Single cycle kinetics with the antibodies immobilized on a CM5 chip was used to measure the binding of the antibodies to the different monomers (AβpE3-40, AβpE11-28, Aβ1-28, Aβ2-28, Aβ3-28 and Aβ4-28). For the measurements, 5 μg/ml of analyte antibody was immobilized on the chip. […] Regeneration of the surface between cycles was done by injecting 30 μl 3 M MgCl₂. The binding data was fitted to a 1:1 interaction model.
as §3

[8] = target: T8, Aβ2-28 monomer (UniProt P05067 673-699); test: SPR, antibody immobilised
T8 construct: range 2-28 (Aβ numbering)
Description: as §4, §3

[9] = target: T9, AβpE11-28 monomer (UniProt P05067 682-699, pyroglutamate at position 11 (N-terminal residue)); test: SPR, antibody immobilised
T9 construct: range 11-28 (Aβ numbering)
T9 peptide (looked up): EVHHQKLVFFAEDVGSNK
Description: as §4, §3

[10] = target: T6, AβpE3-42 protofibrils; test: SPR, protofibrils immobilised, antibody injected, 1:1 fit, apparent
Description: as §2, §3

[11] = target: T10, Aβ1-40 monomer (UniProt P05067 672-711); test: inhibition ELISA, antigen titrated in solution, AβpE3-40 coat
T10 construct: range 1-40 (Aβ numbering)
Description: (§5) For binding to Aβ1-40 and AβpE11-40, the positive control 4G8 (Covance #SIG-39320, epitope: amino acids 17-24 of Aβ) was included. The recombinant antibodies were incubated at a fixed concentration (0.05 μg/ml) with titrating concentrations of the different Aβ antigens. After incubation for 45 min at 900 rpm to reach equilibrium, the antibody-Aβ samples were added to a blocked and washed ELISA plate with an AβpE3-40 coat (0.5 μM). The samples were incubated on the plate for 25 min without shaking followed by washing, incubation with detection antibody, another washing step and finally incubation with alkaline phosphatase substrate.

[12] = target: T6, AβpE3-42 protofibrils; test: as above
Description: as §5

[13] = target: T11, AβpE3-40 monomer (UniProt P05067 674-711, pyroglutamate at position 3 (N-terminal residue)); test: as above
T11 construct: range 3-40 (Aβ numbering); Synthetic peptide (Bachem/Anaspec), verified monomeric by SEC; also called monomeric AβpE3-40
Description: as §5

[14] = target: T12, AβpE11-40 monomer (UniProt P05067 682-711, pyroglutamate at position 11 (N-terminal residue)); test: as above
T12 construct: range 11-40 (Aβ numbering)
T12 peptide (looked up): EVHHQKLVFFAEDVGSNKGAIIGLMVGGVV
Description: as §5

[15] = target: T13, Aβ4-28 monomer (UniProt P05067 675-699); test: SPR, antibody immobilised, monomer injected, 1:1 fit
T13 construct: range 4-28 (Aβ numbering)
Description: as §4, §3

[16] = target: T11, AβpE3-40 monomer; test: as above
Description: as §4, §3

[17] = target: T14, Aβ1-42 monomer (UniProt P05067 672-713); test: ELISA: Aβ monomer captured on a polyclonal anti-Aβ42 coat, hybridoma supernatant diluted 1/243, anti-mouse IgG-HRP
T14 construct: range 1-42 (Aβ numbering)

[18] = target: T15, Aβ2-42 monomer (UniProt P05067 673-713); test: as above
T15 construct: range 2-42 (Aβ numbering)

[19] = target: T16, Aβ1-28 monomer (UniProt P05067 672-699); test: SPR, antibody immobilised
T16 construct: range 1-28 (Aβ numbering)
Description: Affinity and specificity evaluation and KD determination by surface plasmon resonance: Binding interactions between antigens and antibodies were evaluated by SPR using a Biacore 8K instrument (Cytiva) according to standard procedures. […] Additionally, the specificity towards different N-truncated forms of Aβ (Aβ2-28, Aβ3-28, Aβ4-28 and AβpE11-28 monomers) was evaluated.
as §4, §3

T6 sequence (P05067 674-713): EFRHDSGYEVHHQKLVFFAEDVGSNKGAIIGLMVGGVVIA
T13 sequence (P05067 675-699): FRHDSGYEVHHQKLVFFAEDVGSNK
T7 sequence (P05067 674-699): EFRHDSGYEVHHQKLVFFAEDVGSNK
T14 sequence (P05067 672-713): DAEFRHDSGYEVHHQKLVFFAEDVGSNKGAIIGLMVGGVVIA
T16 sequence (P05067 672-699): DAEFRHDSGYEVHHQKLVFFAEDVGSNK
T8 sequence (P05067 673-699): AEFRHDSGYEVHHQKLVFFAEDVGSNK
T15 sequence (P05067 673-713): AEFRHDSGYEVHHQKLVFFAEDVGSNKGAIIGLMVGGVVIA

B1: 37D10 (antibody, V domains shown)
VH: QVQLQQSGAELVRPGTSVKISCKASGYAFTNYWLGWVKQRPGHGLEWIGDIFPGSDNTYYNEKFKGKATLTADKSSSTAYMQLSSLASEDSAVYFCARSGNFYAMDYWGQGTSVTVSS
VL: ENVLTQSPAIMSASPGEKVTMTCSASSSVNYMNWYQQKSSTFPKLWIYDTSKLASGVPGRFSGSGSGKFYSLTISSMEAEDVATYYCFQGSGYPFTFGSGTKLEIK
notes: also called mouse antibody 37D10; clone 37D10
binding result [1]: binds
binding result [2]: binds
binding result [3]: no binding (tested: about 600 ng/ml)
binding result [4]: binds
binding result [5]: no binding (tested: about 600 ng/ml)

B2: Pyr7.1 (antibody, V domains shown)
VH: KVQLQQSGPELVKPGTSIKMSCKTSGYSFTGYTLNWVKQSPGKNPEWIGLINPYNGITTYNPKFMGKATLTVDKSSSTAYMELLSLTSEDSAVYYCSREGNWEGVYWGQGTLVTVSA
VL: not shown
notes: Murine anti-AβpE3 antibody; also called recombinant antibody Pyr7.1; hybridoma clone Pyr7.1
Kd [6]: 0.031 nM
binding result [7]: no binding (tested: 2500 nM)
binding result [8]: no binding (tested: 2500 nM)
binding result [9]: no binding (tested: 2500 nM)
koff [10]: 2.29e-06 s⁻¹
kon [10]: 78200 M⁻¹ s⁻¹
IC50 [11]: > 5000 nM
IC50 [12]: 12.8 nM
IC50 [13]: 2.85 nM
IC50 [14]: > 5000 nM
Kd [15]: 8310 nM
koff [15]: 0.454 s⁻¹
kon [15]: 102000 M⁻¹ s⁻¹
Kd [16]: 2.3 nM
koff [16]: 0.000122 s⁻¹
kon [16]: 53200 M⁻¹ s⁻¹
binding result [17]: no binding
binding result [18]: no binding
binding result [19]: no binding (tested: 2500 nM)
